# Measurements from patent publication US20220162268A1 (BOARD OF TRUSTEES OF MICHIGAN STATE UNIVERSITY, published 2022).
# B1: Synthetic Zipper6 LINKER mScarlet-I StrepII Tag construct (designed binder)
# chain: MQKVAQLKNRVAYKLKENAKLENIVARLENDNANLEKDIANLEKDIANLERDVARGSGGGSGGGSMVSKGEAVIKEFMRFKVHMEGSMNGHEFEIEGEGEGRPYEGTQTAKLKVTKGGPLPFSWDILSPQFMYGSRAFIKHPADIPDYYKQSFPEGFKWERVMNFEDGGAVTVTQDTSLEDGTLIYKVKLRGTNFPPDGPVMQKKTMGWEASTERLYPEDGVLKGDIKMALRLKDGGRYLADFKTTYKAKKPVQMPGAYNVDRKLDITSHNEDYTVVEQYERSEGRHSTGGMDELYKSAWSHPQFEK
# notes: also called SZ6-ggs-mScarlet-I; SZ6-mScarlet-I
# B2: STREP-mNeonGreen (other, not shown: small tags and cut ends)
# chain: MVSKGEEDNMASLPATHELHIFGSINGVDFDMVGQGTGNPNDGYEELNLKSTKGDLQFSPWILVPHIGYGFHQYLPYPDGMSPFQAAMVDGSGYQVHRTMQFEDGASLTVNYRYTYEGSHIKGEAQVKGTGFPADGPVMTNSLTAADWCRSKKTYPNDKTIISTFKWSYTTGNGKRYRSTARTTYTFAKPMAANYLKNQPMYVFRKTELKHSKTELNFKEWQKAFTDVMGMDELYK
# notes: Fluorescent cargo without an SZ6 domain; also called untagged cargo; untagged cargo construct PLacO::mNeonGreen
# B3: Synthetic Zipper6 LINKER mNeonGreen StrepII Tag construct (designed binder)
# chain: MQKVAQLKNRVAYKLKENAKLENIVARLENDNANLEKDIANLEKDIANLERDVARGSGGGSGGGSMVSKGEEDNMASLPATHELHIFGSINGVDFDMVGQGTGNPNDGYEELNLKSTKGDLQFSPWILVPHIGYGFHQYLPYPDGMSPFQAAMVDGSGYQVHRTMQFEDGASLTVNYRYTYEGSHIKGEAQVKGTGFPADGPVMTNSLTAADWCRSKKTYPNDKTIISTFKWSYTTGNGKRYRSTARTTYTFAKPMAANYLKNQPMYVFRKTELKHSKTELNFKEWQKAFTDVMGMDELYKSAWSHPQFEK
# notes: also called SZ6-ggs-mNeonGreen; SZ6-mNeonGreen
# B4: STREP-mScarlet-I (other)
# chain: MVSKGEAVIKEFMRFKVHMEGSMNGHEFEIEGEGEGRPYEGTQTAKLKVTKGGPLPFSWDILSPQFMYGSRAFIKHPADIPDYYKQSFPEGFKWERVMNFEDGGAVTVTQDTSLEDGTLIYKVKLRGTNFPPDGPVMQKKTMGWEASTERLYPEDGVLKGDIKMALRLKDGGRYLADFKTTYKAKKPVQMPGAYNVDRKLDITSHNEDYTVVEQYERSEGRHSTGGMDELYK
# notes: Fluorescent cargo without an SZ6 domain; also called untagged cargo
# Columns and labels:
# [1] = biological target: T1, K28A_HO BMC-H 5815ggsSZ5-HA; assay: fluorescence co-localization in E. coli, 100 µM or 500 µM IPTG (FIG. 2I)
# T1 construct: Self-assembles into higher-order sheets in E. coli; also called K28A 5815-Synthetic Zipper5 construct; K28AHO BMC-H-SZ5
# T1 chain: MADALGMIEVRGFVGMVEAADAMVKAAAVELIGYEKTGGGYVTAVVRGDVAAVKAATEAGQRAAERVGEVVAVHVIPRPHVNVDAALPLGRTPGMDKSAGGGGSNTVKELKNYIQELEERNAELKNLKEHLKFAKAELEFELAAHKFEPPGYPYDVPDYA
# [2] = biological target: T1, K28A_HO BMC-H 5815ggsSZ5-HA; assay: live-cell fluorescence time course in E. coli
# Procedure: E. coli BL21 ArcticExpress (DE3) competent cells (Agilent) were used for cellular expression studies. Competent cells were transformed with constructs containing the gene(s) of interest and plated on LB agar plates with the appropriate antibiotic(s) to provide selection. Individual colonies were picked into 5 mL LB cultures with the appropriate antibiotics(s) and incubated at 30° C., with a rotational stirring of 250 RPM. These overnight cultures were inoculated 1:100 into fresh liquid cultures with conditions dependent upon the experimental plan. For TEM analysis, cells were inoculated in 50 mL LB, grown until ˜OD₆₀₀ 0.8, induced with 100 μM IPTG, and incubated for an additional 6 hours, before 2 mL of the parent culture was fixed overnight at 4° C. Cells used to purify protein were cultured in a similar manner, the whole culture was pelleted, and cell pellets were stored at −20° C. for subsequent protein isolation. Cultures analyzed via light microscopy were inoculated into 1 mL LB or SOB media in culture tubes and incubated the indicated amount of time before imaging. Appropriate inducer(s) (IPTG or aTc) were added as indicated for each experimental design.
# The dynamics of scaffold nucleation and maturation was then visualized over time in live cells. […]
# [3] = biological target: T1, K28A_HO BMC-H 5815ggsSZ5-HA; assay: fluorescence co-localization in E. coli, deconvolved widefield (FIG. 2C)
# [4] = biological target: T1, K28A_HO BMC-H 5815ggsSZ5-HA; assay: fluorescence microscopy of E. coli co-expressing both, 100 µM or 500 µM IPTG (FIG. 2I)
binder,measurement,setting,value
B1,binding result,[1],binds
B2,binding result,[2],no binding
B3,binding result,[3],binds
B4,binding result,[4],no binding
